Experiments:
[1] = target: T1, short form of human CCRL2 (CRAM-B) (human) (UniProt O00421); experiment: cell-based or functional assay
T1 sequence: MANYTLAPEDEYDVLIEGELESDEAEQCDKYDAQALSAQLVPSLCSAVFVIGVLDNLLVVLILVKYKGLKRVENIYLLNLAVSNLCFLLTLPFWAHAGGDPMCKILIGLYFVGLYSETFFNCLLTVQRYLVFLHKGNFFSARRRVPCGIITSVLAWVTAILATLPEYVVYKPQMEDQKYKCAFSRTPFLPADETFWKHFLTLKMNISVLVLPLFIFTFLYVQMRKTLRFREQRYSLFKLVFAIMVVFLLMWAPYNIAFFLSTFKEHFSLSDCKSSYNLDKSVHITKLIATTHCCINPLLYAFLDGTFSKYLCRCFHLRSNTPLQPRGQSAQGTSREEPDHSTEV

[2] = target: Corticotropin Releasing Factor Receptor (CRFR), CRF-R1 (UniProt P34998); experiment: cell-based or functional assay
UniProt P34998, sequence (P34998 24-415 limits assumed): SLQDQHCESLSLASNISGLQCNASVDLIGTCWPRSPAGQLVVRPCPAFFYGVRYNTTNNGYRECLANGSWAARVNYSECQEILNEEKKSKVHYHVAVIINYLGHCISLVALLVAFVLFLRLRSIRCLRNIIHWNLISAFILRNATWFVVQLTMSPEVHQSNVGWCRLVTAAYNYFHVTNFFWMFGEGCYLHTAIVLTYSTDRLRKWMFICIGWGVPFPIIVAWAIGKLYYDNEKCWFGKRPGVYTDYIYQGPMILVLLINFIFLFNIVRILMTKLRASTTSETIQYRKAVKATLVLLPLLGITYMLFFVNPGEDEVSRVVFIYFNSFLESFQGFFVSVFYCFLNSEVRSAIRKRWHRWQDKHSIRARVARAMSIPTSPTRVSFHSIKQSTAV

Molecule: Monocyte chemotactic protein-1 (MCP-1) (from UniProt P13500 24-99) (ligand)
- LacZ activity, Gq-transplant yeast, 10^-6 M ligand [1]: 5.7 LacZ units

Molecule: Monocyte chemotactic protein-3 (MCP-3) (from UniProt P80098 24-99) (ligand)
- LacZ activity, Gi2-transplant yeast, 10^-6 M ligand [1]: 2.2 LacZ units
- chemotaxis of CCRL2 transfected cells, 10 nM chemokine; more cells passing across the membrane than untreated cells [1]: 35%

Molecule: SEEPPISLDLTFHLLREVLEMARAEQLAQQAHSNRKLMEII (peptide, UniProt P06850 154-194, looked up) [Corticotrophin releasing factor (CRF)]
- LacZ activity, Gi2-transplant yeast, 10^-6 M ligand [2]: 6.4 LacZ units
- LacZ activity, Gi3-transplant yeast, 10^-6 M ligand [2]: 17.2 LacZ units

Molecule: DNPSLSIDLTFHLLRTLLELARTQSQRERAEQNRIIFDSV (peptide, UniProt P55089 83-122, looked up) [Urocortin]
- LacZ activity, Gq-transplant yeast, 10^-6 M ligand [2]: 6.9 LacZ units

B1: macrophage inflammatory protein-4 (MIP-4) (ligand)
chain: AQVGTNKELCCLVYTSWQIPQKFIVDYSETSPQCPKPGVILLTKRGRQICADPNKKWVQKYISDLKLNA
- LacZ activity, Gi3-transplant yeast, 10^-6 M ligand [1]: 6.5 LacZ units
- chemotaxis of CCRL2 transfected cells, 10 nM chemokine; more cells passing across the membrane than untreated cells [1]: 35%

Reference: patent publication US20070036781A1
